Experimental findings from patent US20160280794A1 (published 2016) are described below.

In the experiment the target is T1, CD20 (human, UniProt P11836 1-297).
T1 chain: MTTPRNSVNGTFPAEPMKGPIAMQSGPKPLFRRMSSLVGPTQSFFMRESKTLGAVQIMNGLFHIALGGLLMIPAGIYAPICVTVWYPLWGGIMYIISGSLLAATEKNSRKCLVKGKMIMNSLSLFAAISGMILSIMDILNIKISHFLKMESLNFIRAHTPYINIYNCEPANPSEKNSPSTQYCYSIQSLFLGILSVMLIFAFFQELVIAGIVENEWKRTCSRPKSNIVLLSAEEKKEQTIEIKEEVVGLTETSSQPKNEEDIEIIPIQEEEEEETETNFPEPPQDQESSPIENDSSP
As to the kind of experiment: FACS binding; Ramos cells. In general terms: Flow cytometry measures light scatter and fluorescence of single cells or particles in a stream.

B1: Rituximab (antibody)
chain 1: not shown
chain 2: QIVLSQSPAILSASPGEKVTMTCRASSSVSYIHWFQQKPGSSPKPWIYATSNLASGVPVRFSGSGSGTSYSLTISRVEAEDAATYYCQQWTSNPPTFGGGTKLEIKRTVAAPSVFIFPPSDEQLKSGTASVVCLLNNFYPREAKVQWKVDNALQSGNSQESVTEQDSKDSTYSLSSTLTLSKADYEKHKVYACEVTHQGLSSPVTKSFNRGEC
In the case of B1, the EC50 was determined as 1.13 µg/mL.

A word on the EC50: it is the concentration that produces a half-maximal response. Read a high EC50 as weaker potency.
